Tests used:
Assay in all cases: split reporter
[1] = target: NRT2.1 wild type, rBiFC fusion (Arabidopsis thaliana, UniProt O82811 1-530)
[2] = target: NRT2.1 S501A, rBiFC fusion (Arabidopsis thaliana, UniProt O82811 1-530, S501A)
[3] = target: NRT2.1 S501D, rBiFC fusion (Arabidopsis thaliana, UniProt O82811 1-530, S501D)
Chain of NRT2.1 S501D, rBiFC fusion (O82811 whole entry S501D, the tested form may be a part): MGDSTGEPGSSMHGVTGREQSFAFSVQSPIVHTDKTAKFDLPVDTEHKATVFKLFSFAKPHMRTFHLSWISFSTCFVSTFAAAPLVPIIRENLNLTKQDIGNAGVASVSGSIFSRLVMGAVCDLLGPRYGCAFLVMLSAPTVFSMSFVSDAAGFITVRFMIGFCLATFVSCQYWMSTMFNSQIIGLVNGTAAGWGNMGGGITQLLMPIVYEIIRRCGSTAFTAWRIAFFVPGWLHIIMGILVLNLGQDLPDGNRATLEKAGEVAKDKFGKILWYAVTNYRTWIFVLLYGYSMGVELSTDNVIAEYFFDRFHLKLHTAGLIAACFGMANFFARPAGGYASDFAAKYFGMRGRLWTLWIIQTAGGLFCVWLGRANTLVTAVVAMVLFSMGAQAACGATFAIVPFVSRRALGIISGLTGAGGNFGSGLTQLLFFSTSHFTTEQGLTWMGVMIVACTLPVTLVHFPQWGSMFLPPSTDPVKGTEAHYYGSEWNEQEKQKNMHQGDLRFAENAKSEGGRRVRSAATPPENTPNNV

Chain of NRT2.1 wild type, rBiFC fusion (O82811 whole entry, the tested form may be a part): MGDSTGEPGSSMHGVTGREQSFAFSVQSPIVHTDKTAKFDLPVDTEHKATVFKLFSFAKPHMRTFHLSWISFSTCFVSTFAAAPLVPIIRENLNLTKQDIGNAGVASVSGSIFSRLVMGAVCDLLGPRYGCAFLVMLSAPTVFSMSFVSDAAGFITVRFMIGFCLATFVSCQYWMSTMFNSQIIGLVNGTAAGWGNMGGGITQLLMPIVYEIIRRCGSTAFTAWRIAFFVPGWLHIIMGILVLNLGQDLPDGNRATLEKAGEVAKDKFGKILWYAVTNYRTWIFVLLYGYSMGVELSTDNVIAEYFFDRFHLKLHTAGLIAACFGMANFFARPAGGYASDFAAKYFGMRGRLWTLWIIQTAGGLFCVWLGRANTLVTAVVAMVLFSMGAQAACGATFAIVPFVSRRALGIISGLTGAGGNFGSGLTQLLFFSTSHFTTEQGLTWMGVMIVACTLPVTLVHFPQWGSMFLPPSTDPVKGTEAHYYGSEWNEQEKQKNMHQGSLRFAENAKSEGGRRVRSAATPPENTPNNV
Chain of NRT2.1 S501A, rBiFC fusion (O82811 whole entry S501A, the tested form may be a part): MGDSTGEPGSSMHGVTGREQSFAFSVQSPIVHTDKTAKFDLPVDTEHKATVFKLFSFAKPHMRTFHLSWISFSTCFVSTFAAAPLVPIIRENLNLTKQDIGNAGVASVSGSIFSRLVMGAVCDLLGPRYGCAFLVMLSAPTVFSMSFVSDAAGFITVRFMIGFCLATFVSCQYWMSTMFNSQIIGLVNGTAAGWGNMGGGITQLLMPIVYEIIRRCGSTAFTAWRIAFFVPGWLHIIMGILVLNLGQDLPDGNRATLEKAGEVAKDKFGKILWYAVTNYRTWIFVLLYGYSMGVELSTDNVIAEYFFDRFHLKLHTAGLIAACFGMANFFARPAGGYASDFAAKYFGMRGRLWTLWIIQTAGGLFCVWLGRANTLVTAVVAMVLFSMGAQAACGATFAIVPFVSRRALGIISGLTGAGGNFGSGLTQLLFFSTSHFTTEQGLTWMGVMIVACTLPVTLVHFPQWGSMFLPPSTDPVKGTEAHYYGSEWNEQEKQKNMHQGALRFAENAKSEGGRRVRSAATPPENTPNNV

B1: NAR2.1, rBiFC fusion (natural protein, Arabidopsis thaliana, UniProt Q9FGS5 23-210, looked up)
chain: AEKVRLFKELDKGALDVTTKPSREGPGVVLDAGKDTLNITWTLSSIGSKREAEFKIIKVKLCYAPPSQVDRPWRKTHDELFKDKTCPHKIIAKPYDKTLQSTTWTLERDIPTGTYFVRAYAVDAIGHEVAYGQSTDDAKKTNLFSVQAISGRHASLDIASICFSVFSVVALVVFFVNEKRKAKIEQSK
[1]
  YFP fluorescence as percent of RFP fluorescence (rBiFC): ~40 % of RFP fluorescence
[2]
  YFP fluorescence as percent of RFP fluorescence (rBiFC): ~50 % of RFP fluorescence
[3]
  YFP fluorescence as percent of RFP fluorescence (rBiFC): ~50 % of RFP fluorescence
